Experimental data from patent US11795460B2, “Compositions and methods for TTR gene editing and treating ATTR amyloidosis” (Intellia Therapeutics, Inc., priority 2017, dated 2023).
Strand notation (5' to 3'): a small letter for the sugar, then the base; units joined by * are phosphorothioate-linked, units joined directly phosphodiester-linked; [ ] holds rarer units or linkages, { } end groups; capitals alone tell only the bases. m = 2'-O-methyl; r = 2'-OH (RNA)

Key:
TTR = TTR editing in primary cyno hepatocytes treated with LNP formulated Spy Cas9 mRNA (SEQ ID NO: 2) and sgRNAs (Tables 17, 18); assay type: cell-based, cynomolgus monkey; conditions: Table 17, LNP formulated Spy Cas9 mRNA (SEQ ID NO: 2) and sgRNA, 12.5 ng mRNA, 3.9 nM sgRNA, 72 hours
Outline: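 Primary cynomolgus hepatocytes, 24 h after plating, dosed with LNPs (N:P about 4.5 or 6, mRNA:gRNA 1:1 by weight) pre-incubated 5 min at 37° C. in medium with 6% cyno serum, in an 8-point 2-fold dose response. Editing = indel/substitution reads over total reads by amplicon MiSeq sequencing.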

[1] = system: off-target integration sites; test: Off-target oligo insertion based assay in primary human hepatocytes (Table 30); assay type: cell-based; conditions: TTR sgRNAs in PHH, 100 ng Cas9 mRNA, 25 nM sgRNA, 12.5 nM donor oligo
Procedure: Off-target analysis of sgRNAs targeting TTR was performed in primary human hepatocytes (PHH) as described in Example 5, with the following modifications. PHH were plated at a density of 33,000 cells per well on collagen-coated 96-well plates as described in Example 1. Twenty-four hours post plating, cells were washed with media and transfected using Lipofectamine RNAiMAX (ThermoFisher, Cat. 13778150) as described in Example 1. Cells were transfected with a lipoplex containing 100 ng Cas9 mRNA, immediately followed by the addition of another lipoplex containing 25 nM of the sgRNA and 12.5 nM of the donor oligo (0.3 μL/well). Cells were lysed 48 hours post-transfection and gDNA was extracted and analyzed as further described in Example 5. The data is graphically represented in FIG. 20.
Fewer sites were detected in PHH for every guide tested as compared to the HekCas9 cell line, with no unique sites detected in PHH alone.

| Molecule | 12.5 ng mRNA, 3.9 nM sgRNA Avg % Edit (TTR) [%] | # Sites in PHH [1] |
| --- | --- | --- |
| G000495: TTR sgRNA modified sequence, Human, SEQ ID No. 102; guide sequence of CR003343 (nucleic acid) guide: mC*mA*mG*rArGrGrArCrArCrUrUrGrGrArUrUrCrArCrGrUrUrUrUrArGrAmGmCmUmAmGmAmAmAmUmAmGmCrArArGrUrUrArArArArUrArArGrGrCrUrArGrUrCrCrGrUrUrArUrCrAmAmCmUmUmGmAmAmAmAmAmGmUmGmGmCmAmCmCmGmAmGmUmCmGmGmUmGmCmU*mU*mU*mU | 0.73 | 1 |
| G000571: TTR sgRNA modified sequence, Human, SEQ ID No. 112; guide sequence of CR005301 (nucleic acid) guide: mG*mU*mC*rArCrArGrArArArCrArCrUrCrArCrCrGrUrGrUrUrUrUrArGrAmGmCmUmAmGmAmAmAmUmAmGmCrArArGrUrUrArArArArUrArArGrGrCrUrArGrUrCrCrGrUrUrArUrCrAmAmCmUmUmGmAmAmAmAmAmGmUmGmGmCmAmCmCmGmAmGmUmCmGmGmUmGmCmU*mU*mU*mU | 20.20 | 1 |
| G000568: TTR sgRNA modified sequence, Human, SEQ ID No. 110; guide sequence of CR003391 (nucleic acid) guide: mG*mG*mC*rUrGrUrCrGrUrCrArCrCrArArUrCrCrCrArGrUrUrUrUrArGrAmGmCmUmAmGmAmAmAmUmAmGmCrArArGrUrUrArArArArUrArArGrGrCrUrArGrUrCrCrGrUrUrArUrCrAmAmCmUmUmGmAmAmAmAmAmGmUmGmGmCmAmCmCmGmAmGmUmCmGmGmUmGmCmU*mU*mU*mU | 9.25 | 11 |
| G000497: TTR sgRNA modified sequence, Human, SEQ ID No. 104; guide sequence of CR003335 (nucleic acid) guide: mC*mU*mG*rCrUrCrCrUrCrCrUrCrUrGrCrCrUrUrGrCrGrUrUrUrUrArGrAmGmCmUmAmGmAmAmAmUmAmGmCrArArGrUrUrArArArArUrArArGrGrCrUrArGrUrCrCrGrUrUrArUrCrAmAmCmUmUmGmAmAmAmAmAmGmUmGmGmCmAmCmCmGmAmGmUmCmGmGmUmGmCmU*mU*mU*mU | 0.23 | 3 |
| G000570: TTR sgRNA modified sequence, Human, SEQ ID No. 111; guide sequence of CR003347 (nucleic acid) guide: mC*mA*mU*rUrGrArUrGrGrCrArGrGrArCrUrGrCrCrUrGrUrUrUrUrArGrAmGmCmUmAmGmAmAmAmUmAmGmCrArArGrUrUrArArArArUrArArGrGrCrUrArGrUrCrCrGrUrUrArUrCrAmAmCmUmUmGmAmAmAmAmAmGmUmGmGmCmAmCmCmGmAmGmUmCmGmGmUmGmCmU*mU*mU*mU | 17.30 | 1 |
| G000500: TTR sgRNA modified sequence, Human, SEQ ID No. 107; guide sequence of CR003337 (nucleic acid) guide: mC*mC*mA*rGrUrCrCrArGrCrArArGrGrCrArGrArGrGrGrUrUrUrUrArGrAmGmCmUmAmGmAmAmAmUmAmGmCrArArGrUrUrArArArArUrArArGrGrCrUrArGrUrCrCrGrUrUrArUrCrAmAmCmUmUmGmAmAmAmAmAmGmUmGmGmCmAmCmCmGmAmGmUmCmGmGmUmGmCmU*mU*mU*mU | 10.47 | 12 |
| G000501: TTR sgRNA modified sequence, Human, SEQ ID No. 108; guide sequence of CR005300 (nucleic acid) guide: mU*mC*mA*rCrArGrArArArCrArCrUrCrArCrCrGrUrArGrUrUrUrUrArGrAmGmCmUmAmGmAmAmAmUmAmGmCrArArGrUrUrArArArArUrArArGrGrCrUrArGrUrCrCrGrUrUrArUrCrAmAmCmUmUmGmAmAmAmAmAmGmUmGmGmCmAmCmCmGmAmGmUmCmGmGmUmGmCmU*mU*mU*mU | 1.37 | 0 |
| G000498: TTR sgRNA modified sequence, Human, SEQ ID No. 105; guide sequence of CR003359 (nucleic acid) guide: mA*mG*mU*rGrArGrUrCrUrGrGrArGrArGrCrUrGrCrArGrUrUrUrUrArGrAmGmCmUmAmGmAmAmAmUmAmGmCrArArGrUrUrArArArArUrArArGrGrCrUrArGrUrCrCrGrUrUrArUrCrAmAmCmUmUmGmAmAmAmAmAmGmUmGmGmCmAmCmCmGmAmGmUmCmGmGmUmGmCmU*mU*mU*mU | 37.90 | 19 |
| G000493: TTR sgRNA modified sequence, Human, SEQ ID No. 100; guide sequence of CR003368 (nucleic acid) guide: mA*mA*mG*rUrGrCrCrUrUrCrCrArGrUrArArGrArUrUrGrUrUrUrUrArGrAmGmCmUmAmGmAmAmAmUmAmGmCrArArGrUrUrArArArArUrArArGrGrCrUrArGrUrCrCrGrUrUrArUrCrAmAmCmUmUmGmAmAmAmAmAmGmUmGmGmCmAmCmCmGmAmGmUmCmGmGmUmGmCmU*mU*mU*mU | 7.63 | 1 |
| G000567: TTR sgRNA modified sequence, Human, SEQ ID No. 109; guide sequence of CR003352 (nucleic acid) guide: mG*mA*mA*rArGrGrCrUrGrCrUrGrArUrGrArCrArCrCrGrUrUrUrUrArGrAmGmCmUmAmGmAmAmAmUmAmGmCrArArGrUrUrArArArArUrArArGrGrCrUrArGrUrCrCrGrUrUrArUrCrAmAmCmUmUmGmAmAmAmAmAmGmUmGmGmCmAmCmCmGmAmGmUmCmGmGmUmGmCmU*mU*mU*mU | 0.10 | 0 |
| G000492: TTR sgRNA modified sequence, Human, SEQ ID No. 99; guide sequence of CR003342 (nucleic acid) guide: mC*mU*mU*rCrUrCrUrArCrArCrCrCrArGrGrGrCrArCrGrUrUrUrUrArGrAmGmCmUmAmGmAmAmAmUmAmGmCrArArGrUrUrArArArArUrArArGrGrCrUrArGrUrCrCrGrUrUrArUrCrAmAmCmUmUmGmAmAmAmAmAmGmUmGmGmCmAmCmCmGmAmGmUmCmGmGmUmGmCmU*mU*mU*mU | 0.70 | 5 |
| G000491: TTR sgRNA modified sequence, Human, SEQ ID No. 98; guide sequence of CR003338 (nucleic acid) guide: mA*mU*mA*rCrCrArGrUrCrCrArGrCrArArGrGrCrArGrGrUrUrUrUrArGrAmGmCmUmAmGmAmAmAmUmAmGmCrArArGrUrUrArArArArUrArArGrGrCrUrArGrUrCrCrGrUrUrArUrCrAmAmCmUmUmGmAmAmAmAmAmGmUmGmGmCmAmCmCmGmAmGmUmCmGmGmUmGmCmU*mU*mU*mU | 6.37 | 7 |
| G000572: TTR sgRNA modified sequence, Human, SEQ ID No. 113; guide sequence of CR003385 (nucleic acid) guide: mC*mC*mC*rCrUrArCrUrCrCrUrArUrUrCrCrArCrCrArGrUrUrUrUrArGrAmGmCmUmAmGmAmAmAmUmAmGmCrArArGrUrUrArArArArUrArArGrGrCrUrArGrUrCrCrGrUrUrArUrCrAmAmCmUmUmGmAmAmAmAmAmGmUmGmGmCmAmCmCmGmAmGmUmCmGmGmUmGmCmU*mU*mU*mU | 30.60 | 2 |
